Source: article PMC6607443 (2019)

Target: dynein light chain LC8 (UniProt P63167 1-89)
Experiment: ITC

Chain of dynein light chain LC8 (P63167 whole entry): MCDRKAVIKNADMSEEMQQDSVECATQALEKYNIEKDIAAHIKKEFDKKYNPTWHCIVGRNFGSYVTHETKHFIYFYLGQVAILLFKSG

Binder | Kd
ARAGRSVSTQTGSM [CIZ1 peptide] | 800 nM
QDFMKHLDKKTQTPKL [CCL7 peptide] | 2800 nM
YGCTRHQSVQTEDG [MAST1 peptide] | 1700 nM
PRATAEFSTQTPSP [bassoon (BSN) peptide, modified version with the TQT motif near the C-terminus] | 6300 nM
PAPPSYSDKGVQTPSK [ZFPM1 peptide] | 1600 nM
DDHSREKGTQTSGD [SLC9A2 peptide] | 2200 nM
APMSCDKSTQTPSP [BCL2L11 peptide] | 200 nM
NQSFTTASTQTPPQ [CAPRIN2 peptide] | 2600 nM
EKELRHIGTQISSD [ICE1 peptide] | 3600 nM
HPETQDSSTQTDTS [SPAG5 peptide] | 1300 nM
SSSTRSIDTQTPSV [GLCCI1 peptide] | 4900 nM
YDSMDHLDKQTQTPKT [CCL2 peptide] | 4700 nM
SEIHGISRMTQTPQ [RavL peptide] | 8000 nM
PVLTSATGTQTSPA [MUC3A peptide] | 4500 nM
